Measured values from PMC11220700, “Activation and Purification of ß‐Glucocerebrosidase by Exploiting its Transporter LIMP‐2 – Implications for Novel Treatment Strategies in Gaucher's and Parkinson's Disease” (Advanced Science, 2024).

System: wt GCase in HEK 293F supernatant
Test: GCase activity in supernatant of HEK 293F cells co‐expressing soluble LIMP‐2
Assay type: cell-based, human
Conditions: co‐expression with wt GCase, 0‐72 h after transfection, n = 3
Method: HEK 293F cells (ThermoFisher Scientific Inc., Waltham, MA, United States, #R79007) were cultivated in FreeStyle 293 expression medium (ThermoFisher Scientific Inc., Waltham, MA, United States, #12 338 018) in vented flat‐bottom Erlenmeyer flasks (ThermoFisher Scientific Inc., Waltham, MA, United States, #4115‐0125, #4115‐0250, #4115‐0500, #4115‐1000, #4115‐2000) on a MaxQ CO2 Plus orbital shaker (ThermoFisher Scientific Inc., Waltham, MA, United States, #88 881 102) at 125 rpm, 37 °C and 8% CO2. Regularly, the cell count was determined using a Cellometer Auto T4 Plus cell counter (Nexcelom Biocience LLC, Lawrence, Massachusetts, United States). […] For seeding, cells were counted and the desired cell number was transferred to 50 mL tubes. […]
Activity of GCase‐containing samples (recombinant protein, cell lysate, LE fractions, conditioned culture medium) was measured using the synthetic substrate 4‐methylumbelliferyl‐β‐D‐glucopyranoside (4MU, Merck Millipore, Billerica, MA, United States, #M3633). […] GCase activity was quantified via fluorescence of released 4‐methylumbelliferone (endpoint measurement) using an Infinite 200 Pro (TECAN, Männedorf, Switzerland), SpectraMax Gemini (Molecular Devices, San José, CA, United States) or ClarioStar (BMG LABTECH, Ortenberg, Germany) multiplate reader (λ ex: 365 nm; λ em: 445 nm). […]

B1: sLIMP‐2: secreted LIMP‐2 ectodomain, amino acids 36–431, N‐terminal IgK leader sequence, C‐terminal TEV‐cleavable 10xHis tag (protein)
chain: SIEKKIVLRNGTEAFDSWEKPPLPVYTQFYFFNVTNPEEILRGETPRVEEVGPYTYRELRNKANIQFGDNGTTISAVSNKAYVFERDQSVGDPKIDLIRTLNIPVLTVIEWSQVHFLREIIEAMLKAYQQKLFVTHTVDELLWGYKDEILSLIHVFRPDISPYFGLFYEKNGTNDGDYVFLTGEDSYLNFTKIVEWNGKTSLDWWITDKCNMINGTDGDSFHPLITKDEVLYVFPSDFCRSVYITFSDYESVQGLPAFRYKVPAEILANTSDNAGFCIPEGNCLGSGVLNVSICKNGAPIIMSFPHFYQADERFVSAIEGMHPNQEDHETFVDINPLTGIILKAAKRFQINIYVKKLDDFVETGDIRTMVFPVMYLNESVHIDKETASRLKSMINT
modifications: left off: Igκ leader sequence, N-terminal, state not stated | 10xHis (TEV-cleavable), C-terminal, kept
- GCase activity in supernatant over time: GCase activity is higher and stable over the course of the measurements
